Reference: patent US20240091361A1, “T CELL RECEPTORS TARGETING RAS MUTATIONS AND USES THEREOF” (MEMORIAL SLOAN-KETTERING CANCER CENTER, priority 2021, published 2024)

Experiments:
[1] = target: T1, MICU1 peptide on HLA-A*11:01 (human); test: cytokine release
T1 peptide: YFFGADLKGK

[2] = target: T2, PER1 peptide on HLA-A*11:01 (human); test: cytokine release
T2 peptide: PLEGADGGGD

[3] = target: T3, ZN646 peptide on HLA-A*11:01 (human); test: cytokine release
T3 peptide: PEDGADGWGP

[4] = target: T4, GEM (also listed as SEQ ID NOs 82, 106, 130, 141) peptide on HLA-A*11:01 (human); test: cytokine release
T4 peptide: AVFGAGGVGK

[5] = target: T5, EFMT2 peptide on HLA-A*11:01 (human); test: cytokine release
T5 peptide: MSSGADGGGG

[6] = target: T6, FMNL1 peptide on HLA-A*11:01 (human); test: cytokine release
T6 peptide: QEAGADTPGK

[7] = target: T7, MYLK peptide on HLA-A*11:01 (human); test: cytokine release
T7 peptide: GGVGADGGGS

[8] = target: T8, TBL3 peptide on HLA-A*11:01 (human); test: cytokine release
T8 peptide: LSSGSDGLVK

[9] = target: T9, ADA2C peptide on HLA-A*11:01 (human); test: cytokine release
T9 peptide: GAGGADGQGA

[10] = target: T10, FOXL2 peptide on HLA-A*11:01 (human); test: cytokine release
T10 peptide: AGAGADGYGY

[11] = target: T11, NDF2 peptide on HLA-A*11:01 (human); test: cytokine release
T11 peptide: TEQGADGAGR

[12] = target: T12, CHADL peptide on HLA-A*11:01 (human); test: cytokine release
T12 peptide: RQCGADKVGK

[13] = target: T13, HIC1 peptide on HLA-A*11:01 (human); test: cytokine release
T13 peptide: GVPGPDGKGK

[14] = target: T14, PBX3 peptide on HLA-A*11:01 (human); test: cytokine release
T14 peptide: GHEGADGDGR

[15] = target: T15, CC88B peptide on HLA-A*11:01 (human); test: cytokine release
T15 peptide: LRLGADGAGS

[16] = target: T16, MED13 peptide on HLA-A*11:01 (human); test: cytokine release
T16 peptide: NNDGADGMGI

[17] = target: T17, GTR14; GTR3 (the same peptide, also listed as SEQ ID NO 88) peptide on HLA-A*11:01 (human); test: cytokine release
T17 peptide: QAHGADRSGK

[18] = target: T18, KRAS wild type (10-mer) peptide on HLA-A*11:01 (human); test: cytokine release
T18 peptide: VVVGAGGVGK

[19] = target: T19, DAZP1 peptide on HLA-A*11:01 (human); test: cytokine release
T19 peptide: NNSGADEIGK

[20] = target: T20, MARF1 peptide on HLA-A*11:01 (human); test: cytokine release
T20 peptide: LKLGADGSGP

[21] = target: T21, KRAS G12D (9-mer; the same sequence in NRAS G12D and HRAS G12D) peptide on HLA-A*11:01 (human); test: cytokine release
T21 peptide: VVGADGVGK

[22] = target: T22, HMCN2 peptide on HLA-A*11:01 (human); test: cytokine release
T22 peptide: IKQGADGSGT

[23] = target: T23, DYH8 peptide on HLA-A*11:01 (human); test: cytokine release
T23 peptide: KVAGADGKGI

[24] = target: T24, KRAS G12D (10-mer; the same sequence in NRAS G12D and HRAS G12D) peptide on HLA-A*11:01 (human); test: multimer staining
T24 peptide: VVVGADGVGK

[25] = target: T25, SEZ6 peptide on HLA-A*11:01 (human); test: cytokine release
T25 peptide: LSLEAPTVGK

[26] = target: T26, IGM peptide on HLA-A*11:01 (human); test: cytokine release
T26 peptide: LTESGPALVK

[27] = target: T27, KAD3 peptide on HLA-A*11:01 (human); test: cytokine release
T27 peptide: VIMGAPGSGK

[28] = target: T28, CL056 peptide on HLA-A*11:01 (human); test: cytokine release
T28 peptide: SSQSAPTTGK

[29] = target: T29, CPNS1 peptide on HLA-A*11:01 (human); test: cytokine release
T29 peptide: AVMDSDTTGK

[30] = target: T30, CK049 peptide on HLA-A*11:01 (human); test: cytokine release
T30 peptide: YSCPPPALVK

[31] = target: T31, ABCF1 peptide on HLA-A*11:01 (human); test: cytokine release
T31 peptide: STSPSDKVVK

[32] = target: T32, RL7A peptide on HLA-A*11:01 (human); test: cytokine release
T32 peptide: KVAPAPAVVK

[33] = target: T33, SHAN3 peptide on HLA-A*11:01 (human); test: cytokine release
T33 peptide: TTVPSPASGK

[34] = target: T34, IL17F peptide on HLA-A*11:01 (human); test: cytokine release
T34 peptide: KTLHGPAMVK

[35] = target: T35, CD166 peptide on HLA-A*11:01 (human); test: cytokine release
T35 peptide: NVFEAPTIVK

[36] = target: T36, GRIN1 peptide on HLA-A*11:01 (human); test: cytokine release
T36 peptide: GTAGPPSAVK

[37] = target: T37, RSLAA peptide on HLA-A*11:01 (human); test: cytokine release
T37 peptide: AVLGAPGVGK

[38] = target: T38, KZF4 peptide on HLA-A*11:01 (human); test: cytokine release
T38 peptide: HSVSSPTVGK

[39] = target: T39, BMS1 peptide on HLA-A*11:01 (human); test: cytokine release
T39 peptide: VVMGPPKVGK

[40] = target: T40, K1671 peptide on HLA-A*11:01 (human); test: cytokine release
T40 peptide: TTKSGPALGK

[41] = target: T41, CPNS2 peptide on HLA-A*11:01 (human); test: cytokine release
T41 peptide: SVMDSDTTGK

[42] = target: T42, FLNA peptide on HLA-A*11:01 (human); test: cytokine release
T42 peptide: VTIDGPSKVK

[43] = target: T43, SALL1 peptide on HLA-A*11:01 (human); test: cytokine release
T43 peptide: SATSPPGSVK

[44] = target: T44, CFA47 peptide on HLA-A*11:01 (human); test: cytokine release
T44 peptide: MVFDSPTIGK

[45] = target: T45, LEGL peptide on HLA-A*11:01 (human); test: cytokine release
T45 peptide: SVADSDAVVK

B1: TCR 3 (TCR, V domains shown)
Valpha: AQTVTQSQPEMSVQEAETVTLSCTYDTSESDYYLFWYKQPPSRQMILVIRQEAYKQQNATENRFSVNFQKAAKSFSLKISDSQLGDAAMYFCAYRSDGGATNKLIFGTGTLLAVQP
Vbeta: EAQVTQNPRYLITVTGKKLTVTCSQNMNHEYMSWYRQDPGLGLRQIYYSMNVEVTDKGDVPEGYKVSRKEKRNFPLILESPSPNQTSLYFCASSLGAGGYNSPLHFGNGTRLTVT
binding result [1]: no recognition
binding result [2]: no recognition
binding result [3]: no recognition
binding result [4]: no recognition
binding result [5]: no recognition
binding result [6]: no recognition
binding result [7]: no recognition
binding result [8]: no recognition
binding result [9]: no recognition
binding result [10]: no recognition
binding result [11]: no recognition
binding result [12]: no recognition
binding result [13]: no recognition
binding result [14]: no recognition
binding result [15]: no recognition
binding result [16]: no recognition
binding result [17]: no recognition
binding result [18]: no recognition
binding result [19]: no recognition
binding result [20]: no recognition
binding result [21]: recognises
binding result [22]: no recognition
binding result [23]: no recognition
binding result [24]: recognises

B2: TCR 2 (TCR, V domains shown)
Valpha: AQTVTQSQPEMSVQEAETVTLSCTYDTSENNYYLFWYKQPPSRQMILVIRQEAYKQQNATENRFSVNFQKAAKSFSLKISDSQLGDTAMYFCAFMYPSQGGSEKLVFGKGMKLTVNP
Vbeta: ETGVTQSPTHLIKTRGQQVTLRCSSQSGHNTVSWYQQALGQGPQFIFQYYREEENGRGNFPPRFSGLQFPNYSSELNVNALELDDSALYLCASSSPGFRSYGYTFGSGTRLTVV
binding result [25]: no recognition
binding result [4]: no recognition
binding result [26]: no recognition
binding result [27]: no recognition
binding result [28]: no recognition
binding result [29]: no recognition
binding result [30]: no recognition
binding result [31]: no recognition
binding result [32]: no recognition
binding result [33]: no recognition
binding result [34]: no recognition
binding result [35]: no recognition
binding result [36]: no recognition
binding result [37]: no recognition
binding result [38]: no recognition
binding result [39]: no recognition
binding result [40]: no recognition
binding result [41]: no recognition
binding result [42]: no recognition
binding result [43]: no recognition
binding result [44]: no recognition
binding result [18]: no recognition
binding result [21]: recognises
binding result [45]: no recognition
binding result [24]: recognises
